B1: human MCAM expressed on CHO cells (full length human MCAM gene) (receptor)
chain: VPGEAEQPAPELVEVEVGSTALLKCGLSQSQGNLSHVDWFSVHKEKRTLIFRVRQGQGQSEPGEYEQRLSLQDRGATLALTQVTPQDERIFLCQGKRPRSQEYRIQLRVYKAPEEPNIQVNPLGIPVNSKEPEEVATCVGRNGYPIPQVIWYKNGRPLKEEKNRVHIQSSQTVESSGLYTLQSILKAQLVKEDKDAQFYCELNYRLPSGNHMKESREVTVPVFYPTEKVWLEVEPVGMLKEGDRVEIRCLADGNPPPHFSISKQNPSTREAEEETTNDNGVLVLEPARKEHSGRYECQAWNLDTMISLLSEPQELLVNYVSDVRVSPAAPERQEGSSLTLTCEAESSQDLEFQWLREETDQVLERGPVLQLHDLKREAGGGYRCVASVPSIPGLNRTQLVKLAIFGPPWMAFKERKVWVKENMVLNLSCEASGHPRPTISWNVNGTASEQDQDPQRVLSTLNVLVTPELLETGVECTASNDLGKNTSILFLELVNLTTLTPDSNTTTGLSTSTASPHTRANSTSTERKLPEPESRGVVIVAVIVCILVLAVLGAVLYFLYKKGKLPCRRSGKQEITLPPSRKTELVVEVKSDKLPEEMGLLQGSSGDKRAPGDQGEKYIDLRH
notes: also called hMCAM expressing CHO cells; CD146

Tests used:
recombinant laminin 511 = biological target: T1, recombinant laminin 511 (UniProt O15230 36-3695; P07942 22-1786; P11047 34-1609); experiment: flow cytometry with a pan-laminin antibody on CHO cells transfected with human MCAM
T1 construct: also called laminin 10 (α5β1γ1)

laminin α-4 = laminin α-4 (UniProt Q16363 25-1823); experiment: FACS on MCAM mutants displayed on mammalian cells
recombinant hMCAM-His [1] = biological target: T2, recombinant hMCAM-His (human, UniProt P43121 24-559); experiment: competitive ELISA on coated hMCAM-His, competitor biotinylated rodent or chimeric 2120; IC50 relative to rodent 2120, Expt. #1
T2 chain: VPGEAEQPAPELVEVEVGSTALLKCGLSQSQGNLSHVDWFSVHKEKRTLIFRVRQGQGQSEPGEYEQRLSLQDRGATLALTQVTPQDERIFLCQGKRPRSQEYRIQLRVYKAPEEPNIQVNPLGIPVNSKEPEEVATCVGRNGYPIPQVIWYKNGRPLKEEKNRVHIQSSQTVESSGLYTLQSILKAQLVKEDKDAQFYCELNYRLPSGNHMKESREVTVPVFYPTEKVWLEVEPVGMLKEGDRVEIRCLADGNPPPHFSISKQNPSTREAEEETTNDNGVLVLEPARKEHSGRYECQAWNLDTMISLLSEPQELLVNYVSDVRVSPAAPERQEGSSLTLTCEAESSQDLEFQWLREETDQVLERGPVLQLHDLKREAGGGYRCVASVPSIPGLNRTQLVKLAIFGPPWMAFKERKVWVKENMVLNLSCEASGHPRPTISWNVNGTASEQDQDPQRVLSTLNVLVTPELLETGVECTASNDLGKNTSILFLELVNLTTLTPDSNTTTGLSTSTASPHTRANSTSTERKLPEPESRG
Experimental: (§1) The apparent affinities of the humanized antibodies were compared to the parental rodent or chimeric antibody in a competitive ELISA according to the following protocol: ELISA plates were coated with recombinant hMCAM-His, and blocked with casein buffer to prevent non-specific binding. Biotinylated rodent or chimeric antibody was added at a subsaturating concentration, in the presence or absence of 3× increasing concentrations of unlabeled competitor (humanized antibody, rodent, or chimeric). After washing to remove unbound antibody, streptavidin HRP was added to allow detection of the biotinylated antibody. The ELISA was developed with TMB substrate and the OD450 was measured. The IC50 of the unlabeled competitor was determined using the GraphPad Prism5 software.

recombinant hMCAM-His [2] = biological target: T2, recombinant hMCAM-His; experiment: ForteBio Octet Red, antibody on anti-human Fc sensors, hMCAMHis analyte, 1:1 fit; affinity relative to rodent 2120, Expt. #2
Experimental: (§2) The affinities were measured using the ForteBio Octet Red. Anti-human Fc sensors were used to capture the humanized antibodies, and several concentrations of hMCAMHis analyte were used to determine the affinity using a 1:1 fitting model.

[3] = biological target: B1; experiment: laminin/FACS assay: blocking of recombinant laminin 411 binding to hMCAM expressing CHO cells, relative to rodent 2120, Expt#2
Experimental: (§3) Following incubation for 30-45 minutes, the cells were washed and anti-laminin conjugated to AF650 (NovusBio) was added to detect the bound laminin. The cells were run on a flow cytometer to measure the laminin binding signal.

recombinant hMCAM-His [4] = biological target: T2, recombinant hMCAM-His; experiment: competitive ELISA on coated hMCAM-His, competitor biotinylated rodent or chimeric 2120; IC50 relative to rodent 2120
Experimental: as §1

recombinant hMCAM-His [5] = biological target: T2, recombinant hMCAM-His; experiment: competitive ELISA on coated hMCAM-His, competitor biotinylated rodent or chimeric 2120; IC50 relative to rodent 2120, Expt. #2
Experimental: as §1

recombinant hMCAM-His [6] = biological target: T2, recombinant hMCAM-His; experiment: ForteBio Octet Red, antibody on anti-human Fc sensors, hMCAMHis analyte, 1:1 fit; affinity relative to rodent 2120, second Forte column
Experimental: as §2

[7] = biological target: B1; experiment: laminin/FACS assay: blocking of recombinant laminin 411 binding to hMCAM expressing CHO cells, relative to rodent 2120, Expt#1
Experimental: as §3

recombinant hMCAM-His [8] = biological target: T2, recombinant hMCAM-His; experiment: ForteBio Octet Red, antibody on anti-human Fc sensors, hMCAMHis analyte, 1:1 fit; affinity relative to rodent 2120, Expt. #1
Experimental: as §2

recombinant hMCAM-His [9] = biological target: T2, recombinant hMCAM-His; experiment: ForteBio Octet Red, antibody on anti-human Fc sensors, hMCAMHis analyte, 1:1 fit; affinity relative to rodent 2120, first Forte column
Experimental: as §2

recombinant hMCAM-His [10] = biological target: T2, recombinant hMCAM-His; experiment: summary of ForteBio and competitive ELISA on hMCAM-His
Experimental: as §1, §2

[11] = biological target: B1; experiment: summary of laminin blocking assay on hMCAM expressing CHO cells
Experimental: as §3

Sequence of laminin α-4 (Q16363 25-1823): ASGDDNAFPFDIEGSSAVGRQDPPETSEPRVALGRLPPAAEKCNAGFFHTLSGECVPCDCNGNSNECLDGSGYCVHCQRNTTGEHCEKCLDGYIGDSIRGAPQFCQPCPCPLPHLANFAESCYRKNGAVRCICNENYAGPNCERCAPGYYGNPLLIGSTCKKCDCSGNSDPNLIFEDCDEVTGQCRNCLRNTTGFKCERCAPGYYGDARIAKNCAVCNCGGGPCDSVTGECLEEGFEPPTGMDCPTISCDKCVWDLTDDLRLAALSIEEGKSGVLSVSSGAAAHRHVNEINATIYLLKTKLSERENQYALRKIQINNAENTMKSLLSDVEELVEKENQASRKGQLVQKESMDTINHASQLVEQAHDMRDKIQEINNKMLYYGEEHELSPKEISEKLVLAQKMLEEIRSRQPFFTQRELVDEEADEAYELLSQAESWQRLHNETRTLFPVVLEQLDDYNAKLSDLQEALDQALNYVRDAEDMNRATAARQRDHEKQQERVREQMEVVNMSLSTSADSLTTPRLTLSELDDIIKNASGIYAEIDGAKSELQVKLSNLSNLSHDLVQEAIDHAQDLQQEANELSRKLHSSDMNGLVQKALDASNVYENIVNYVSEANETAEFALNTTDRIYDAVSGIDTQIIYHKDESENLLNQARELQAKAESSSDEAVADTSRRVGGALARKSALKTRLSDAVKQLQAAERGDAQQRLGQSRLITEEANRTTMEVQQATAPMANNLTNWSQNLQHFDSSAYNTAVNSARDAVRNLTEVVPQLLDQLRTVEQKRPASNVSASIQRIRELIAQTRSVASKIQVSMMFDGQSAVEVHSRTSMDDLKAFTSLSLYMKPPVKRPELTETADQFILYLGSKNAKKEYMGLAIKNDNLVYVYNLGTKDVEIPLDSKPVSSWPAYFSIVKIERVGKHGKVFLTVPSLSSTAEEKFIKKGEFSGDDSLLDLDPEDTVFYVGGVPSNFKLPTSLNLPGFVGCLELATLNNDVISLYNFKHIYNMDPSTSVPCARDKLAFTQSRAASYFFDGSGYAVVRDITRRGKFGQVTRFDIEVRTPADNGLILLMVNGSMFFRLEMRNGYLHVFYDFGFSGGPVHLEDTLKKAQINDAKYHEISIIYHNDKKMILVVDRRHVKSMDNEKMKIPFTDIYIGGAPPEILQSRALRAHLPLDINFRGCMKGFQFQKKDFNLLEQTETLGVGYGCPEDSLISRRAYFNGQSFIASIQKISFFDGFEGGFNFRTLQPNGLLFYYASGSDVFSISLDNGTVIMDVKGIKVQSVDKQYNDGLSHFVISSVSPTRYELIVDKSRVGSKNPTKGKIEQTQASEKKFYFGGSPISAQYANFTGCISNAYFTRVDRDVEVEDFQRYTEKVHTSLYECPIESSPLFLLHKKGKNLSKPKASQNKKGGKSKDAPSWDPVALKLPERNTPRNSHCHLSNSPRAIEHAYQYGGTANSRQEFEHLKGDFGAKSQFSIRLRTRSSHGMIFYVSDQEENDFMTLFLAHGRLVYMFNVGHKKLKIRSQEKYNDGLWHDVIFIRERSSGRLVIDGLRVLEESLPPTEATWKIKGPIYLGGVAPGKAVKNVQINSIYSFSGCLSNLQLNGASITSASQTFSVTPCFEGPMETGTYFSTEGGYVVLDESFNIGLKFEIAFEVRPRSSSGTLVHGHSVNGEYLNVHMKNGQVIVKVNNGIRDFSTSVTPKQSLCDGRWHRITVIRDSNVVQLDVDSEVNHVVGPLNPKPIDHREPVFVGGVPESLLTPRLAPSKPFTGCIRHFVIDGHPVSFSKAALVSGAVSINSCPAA

B1
binding result (recombinant laminin 511): no binding (tested: 10 µg/ml)

B2: human MCAM Y318A mutant displayed on mammalian cells (Example 5) (receptor)
chain: VPGEAEQPAPELVEVEVGSTALLKCGLSQSQGNLSHVDWFSVHKEKRTLIFRVRQGQGQSEPGEYEQRLSLQDRGATLALTQVTPQDERIFLCQGKRPRSQEYRIQLRVYKAPEEPNIQVNPLGIPVNSKEPEEVATCVGRNGYPIPQVIWYKNGRPLKEEKNRVHIQSSQTVESSGLYTLQSILKAQLVKEDKDAQFYCELNYRLPSGNHMKESREVTVPVFYPTEKVWLEVEPVGMLKEGDRVEIRCLADGNPPPHFSISKQNPSTREAEEETTNDNGVLVLEPARKEHSGRAECQAWNLDTMISLLSEPQELLVNYVSDVRVSPAAPERQEGSSLTLTCEAESSQDLEFQWLREETDQVLERGPVLQLHDLKREAGGGYRCVASVPSIPGLNRTQLVKLAIFGPPWMAFKERKVWVKENMVLNLSCEASGHPRPTISWNVNGTASEQDQDPQRVLSTLNVLVTPELLETGVECTASNDLGKNTSILFLELVNLTTLTPDSNTTTGLSTSTASPHTRANSTSTERKLPEPESRGVVIVAVIVCILVLAVLGAVLYFLYKKGKLPCRRSGKQEITLPPSRKTELVVEVKSDKLPEEMGLLQGSSGDKRAPGDQGEKYIDLRH
notes: construct and any tag not described
binding result (laminin α-4): no binding

B3: human MCAM D216A mutant displayed on mammalian cells (Example 5) (receptor)
chain: VPGEAEQPAPELVEVEVGSTALLKCGLSQSQGNLSHVDWFSVHKEKRTLIFRVRQGQGQSEPGEYEQRLSLQDRGATLALTQVTPQDERIFLCQGKRPRSQEYRIQLRVYKAPEEPNIQVNPLGIPVNSKEPEEVATCVGRNGYPIPQVIWYKNGRPLKEEKNRVHIQSSQTVESSGLYTLQSILKAQLVKEAKDAQFYCELNYRLPSGNHMKESREVTVPVFYPTEKVWLEVEPVGMLKEGDRVEIRCLADGNPPPHFSISKQNPSTREAEEETTNDNGVLVLEPARKEHSGRYECQAWNLDTMISLLSEPQELLVNYVSDVRVSPAAPERQEGSSLTLTCEAESSQDLEFQWLREETDQVLERGPVLQLHDLKREAGGGYRCVASVPSIPGLNRTQLVKLAIFGPPWMAFKERKVWVKENMVLNLSCEASGHPRPTISWNVNGTASEQDQDPQRVLSTLNVLVTPELLETGVECTASNDLGKNTSILFLELVNLTTLTPDSNTTTGLSTSTASPHTRANSTSTERKLPEPESRGVVIVAVIVCILVLAVLGAVLYFLYKKGKLPCRRSGKQEITLPPSRKTELVVEVKSDKLPEEMGLLQGSSGDKRAPGDQGEKYIDLRH
notes: as for B2
binding result (laminin α-4): no binding

B4: humanized anti-MCAM antibody h2120_VH1 + h2120_VL3 (antibody, V domains shown)
VH: QVTLKESGPVLVKPTETLTLTCTVSGFSLTSNGVSWVRQPPGKALEWIAAISSGGTTYYNSAFKSRLTISRDTSKSQVVLTMTNMDPVDTATYYCARRYGYGWYFDFWGQGTLVTVSS
VL: DIQMTQSPSSLSASVGDRVTINCKASQNIYNSLAWYQQKPGKAPKVLIFNANSLQTGIPSRFSGSGSGTDFTLTISSLQPEDFATYYCQQFYSGYTFGQGTKLEIK
notes: V regions cloned into vectors containing human CK (VL) or human IgG1 (VH); also called h2120VH1VL3; Standard VH + conservative VL
Fold over rodent (ELISA) (recombinant hMCAM-His [1]): 2.23 fold | Fold over rodent (Forte) (recombinant hMCAM-His [2]): 6.21 fold | Fold over rodent (Blocking) [3]: 2.8 fold | Fold over rodent (ELISA) (recombinant hMCAM-His [4]): 1.8 fold | Fold over rodent (ELISA) (recombinant hMCAM-His [5]): 2.42 fold | Fold over rodent (Forte) (recombinant hMCAM-His [6]): 5.8 fold | Fold over rodent (Blocking) [7]: 1.7 fold | Fold over rodent (Forte) (recombinant hMCAM-His [8]): 5.64 fold | Fold over rodent (Forte) (recombinant hMCAM-His [9]): 5.9 fold

B5: humanized anti-MCAM antibody h2120_VH5 + h2120_VL3 (antibody, V domains shown)
VH: QVTLKESGPVLVKPTETLTLTCTVSGFSLTSNAVSWVRQPPGKALEWIAAISSGGTTYYNSAFKSRLTISRDTSKSQVVLTMTNMDPVDTATYYCARRYGYGWYFDFWGQGTLVTVSS
VL: DIQMTQSPSSLSASVGDRVTINCKASQNIYNSLAWYQQKPGKAPKVLIFNANSLQTGIPSRFSGSGSGTDFTLTISSLQPEDFATYYCQQFYSGYTFGQGTKLEIK
notes: Human IgG1 / human kappa; also called h2120VH5VL3; VH5VL3
Fold over rodent (Blocking) [3]: 1.5 fold | reduction in affinity (fold, against rodent 2120) (recombinant hMCAM-His [10]): < 2 fold | Fold over rodent (ELISA) (recombinant hMCAM-His [4]): 2.4 fold | Fold over rodent (Forte) (recombinant hMCAM-His [6]): 1.2 fold | Fold over rodent (Blocking) [7]: 1.2 fold | Fold over rodent (Forte) (recombinant hMCAM-His [9]): 1.1 fold | reduction in potency (fold, against rodent 2120) [11]: < 2 fold

B6: humanized anti-MCAM antibody h2120_VH2 + h2120_VL3 (antibody, V domains shown)
VH: QVTLKESGPVLVKPTETLTLTCTVSGFSLTSNGVSWVRQPPGKALEWIAAISSGGTTYYNSAFKSRLSISRDTSKSQVVLTMTNMDPVDTATYYCARRYGYGWYFDFWGQGTLVTVSS
VL: DIQMTQSPSSLSASVGDRVTINCKASQNIYNSLAWYQQKPGKAPKVLIFNANSLQTGIPSRFSGSGSGTDFTLTISSLQPEDFATYYCQQFYSGYTFGQGTKLEIK
notes: Human IgG1 / human kappa; also called h2120VH2VL3; Conservative VH + conservative VL
Fold over rodent (ELISA) (recombinant hMCAM-His [1]): 1.93 fold | Fold over rodent (Forte) (recombinant hMCAM-His [2]): 6.43 fold | Fold over rodent (ELISA) (recombinant hMCAM-His [5]): 2.62 fold | Fold over rodent (Forte) (recombinant hMCAM-His [8]): 6.57 fold
